{"source": "patent US20190071499A1", "about": "(published 2019)", "binders": {"B1": {"name": "26B9 (antibody, V domains shown)", "VH": "QILLQESGPGLVKPTETLSLTCSVSGDSISDSSHYWAWIRQPPGKGPEWIGSVYFSSMTHYNPSLKSRVSISVDKPKNQFSLKVTSVTVADTATYYCARQALARVGAMNWFDPWGQGSLVTVSS", "VL": "DIIMTQSPDSLPVSLGEGVTINCKSSQSVFFTSSNKSCLAWYQQKPGKSPKLLIYWASTRQSGVPDRFRGSGSGTDFSLTITSLQAEDVAVYFCQQCQTSPPTFGGGTRLEIKR"}}, "experiment_in_all_cases": "SPR", "key": {"[1]": {"target": "T1, human IFN-α4 (human, UniProt P05014 24-189)", "T1 chain": "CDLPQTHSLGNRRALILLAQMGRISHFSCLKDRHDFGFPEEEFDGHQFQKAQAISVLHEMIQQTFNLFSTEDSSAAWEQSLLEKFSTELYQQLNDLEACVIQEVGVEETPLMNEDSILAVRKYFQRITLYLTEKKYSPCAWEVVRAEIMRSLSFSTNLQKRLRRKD"}, "[2]": {"target": "T2, human IFN-α14 (human, UniProt P01570 24-189)", "T2 chain": "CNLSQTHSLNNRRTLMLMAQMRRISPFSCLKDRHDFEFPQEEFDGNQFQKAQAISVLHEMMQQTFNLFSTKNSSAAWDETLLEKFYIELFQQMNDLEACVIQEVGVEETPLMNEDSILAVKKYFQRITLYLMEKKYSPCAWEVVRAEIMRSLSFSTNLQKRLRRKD"}, "[3]": {"target": "human IFN-ω (human, UniProt P05000 24-195)", "sequence (P05000 24-195)": "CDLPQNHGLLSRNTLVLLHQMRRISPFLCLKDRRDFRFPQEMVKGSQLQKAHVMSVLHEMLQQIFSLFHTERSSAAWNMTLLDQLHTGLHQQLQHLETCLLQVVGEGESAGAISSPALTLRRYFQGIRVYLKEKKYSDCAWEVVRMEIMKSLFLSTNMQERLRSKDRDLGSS"}}, "data": [{"binder": "B1", "values": [{"measurement": "Kd", "setting": "[1]", "value": 0.0375, "unit": "pM"}, {"measurement": "Kd", "setting": "[2]", "value": 0.0328, "unit": "pM"}, {"measurement": "Kd", "setting": "[3]", "value": 0.125, "unit": "pM"}]}]}
